Data from US20140255414A1.

Molecular target: Aβ(pE11-30) peptide
Assay: direct ELISA, adsorbed Aβ(pE11-30), 1 µg/ml biotinylated antibody with SA-HRP

Sequence of Aβ(pE11-30) peptide (peptide, as listed by the source): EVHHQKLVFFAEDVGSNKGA

Substance: biotinylated monoclonal mouse anti Aβ(17-24) antibody (clone 4G8, Covance)
- ELISA signal relative to clone 13: 5 times lower
